Among the data in article PMC6613369 are Km, kcat and kcat/Km values, retold here.

Substrate in this data set: CO[C@@H]1O[C@H](CO)[C@H](O)[C@@H](O)[C@H]1O
In words: purified protein. Format: biochemical, Escherichia coli. As to conditions: oxidation, 2.0 mM NAD+, 50 mM HEPES/K+, pH 8.0, 30 °C.

B1: YcjQ (Escherichia coli K-12) (protein)
chain: MKKLVATAPRVAALVEYEDRAILANEVKIRVRFGAPKHGTEVVDFRAASPFIDEDFNGEWQMFTPRPADAPRGIEFGKFQLGNMVVGDIIECGSDVTDYAVGDSVCGYGPLSETVIINAVNNYKLRKMPQGSSWKNAVCYDPAQFAMSGVRDANVRVGDFVVVVGLGAIGQIAIQLAKRAGASVVIGVDPIAHRCDIARRHGADFCLNPIGTDVGKEIKTLTGKQGADVIIETSGYADALQSALRGLAYGGTISYVAFAKPFAEGFNLGREAHFNNAKIVFSRACSEPNPDYPRWSRKRIEETCWELLMNGYLNCEDLIDPVVTFANSPESYMQYVDQHPEQSIKMGVTF
As usually defined, the Km is the substrate concentration at which the rate is half of its maximum. As usually defined, the kcat is the maximal rate divided by the concentration of active sites. One may read the kcat/Km as the second-order rate constant that governs catalysis at low substrate concentration. Take B1: the Michaelis constant (Km) was found to be 12.5 ± 1.5 mM, the kcat was found to be 0.35 ± 0.03 s⁻¹ and the kcat/Km turned out to be 28 ± 3 M⁻¹ s⁻¹.
